According to patent publication US20120231000A1:

Target: Avastin™ (Bevacizumab)
Assay: competition ELISA, inhibition of Avastin binding to coated humVEGF1-165

fold difference in affinity as compared to humVEGF1-165: < 5 fold
B1: oxid-humVEGF26-104 (designed binder)
chain: CHPIETLVDIFQEYPDEIEYIFKPSAVPLMRCGGACNDEGLECVPTEESNITMQIMRIKPHQGQHIGEMSFLQHNKCEC
modifications: N-terminal acetyl; C-terminal amide; oxidatively folded cystine knot (three disulfide bonds C1-C4, C2-C5, C3-C6)
